# Measurements published in the supplement of paper PMC10567573.
# B1: PTPRD (parent)
# chain: FICQATGDPRPKIVWNKKGKKVSN
# Variants of: B1
# Experiment: protein stability index of a GFP-peptide fusion (GPS, HEK-293T) (PSI 1-6); higher = more stable
# Conditions: c terminus: a fixed tail appended
# 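Further: lentivirally expressed fusions sorted by FACS into six bins by GFP to DsRed ratio, PSI derived from sequencing read proportions per bin multiplied by bin number.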
row,Variant,protein stability index
1,FICQATGDPRPKIVWNKKGEKVSN [K20E],1.78
2,FICQATGDPRPKIVDNKKGKKVSN [W15D],2.73
3,FICQATGDPRPKIVQNKKGKKVSN [W15Q],2.73
4,FICQATGDPRPKIVGNKKGKKVSN [W15G],2.26
5,FICQATGDPRPKIVRNKKGKKVSN [W15R],2.6
6,FICQATGDPRPKIVKNKKGKKVSN [W15K],2.12
7,FICQATGDPRPKIVYNKKGKKVSN [W15Y],2.25
8,FICQATGDPRPKIVFNKKGKKVSN [W15F],2.5
9,FICQATGDPRPKIVINKKGKKVSN [W15I],2.26
10,FICQATGDPRPKIVANKKGKKVSN [W15A],2.48
11,FICQATGDPRPKIVCNKKGKKVSN [W15C],2.57
12,FICQATGDPRPKIVHNKKGKKVSN [W15H],2.15
13,FICQATGDPRPKIVTNKKGKKVSN [W15T],2.85
14,FICQATGDPRPKIVLNKKGKKVSN [W15L],2.16
15,FICQATGDPRPKIVSNKKGKKVSN [W15S],2.7
16,FICQATGDPRPKIVNNKKGKKVSN [W15N],2.53
17,FICQATGDPRPKIVENKKGKKVSN [W15E],2.67
18,FICQATGDPRPKIVVNKKGKKVSN [W15V],2.76
19,FICQATGDPRPKIVMNKKGKKVSN [W15M],2.9
20,FICQATGDPRPKIVPNKKGKKVSN [W15P],2.56
21,FICQATGDPRPKIVWNKKNKKVSN [G19N],1.56
22,FICQATGDPRPKIVWNKKAKKVSN [G19A],2.23
23,FICQATGDPRPKIVWNKKYKKVSN [G19Y],1.27
24,FICQATGDPRPKIVWNKKQKKVSN [G19Q],2.4

row,Variant,protein stability index
1,FICQATGDPRPKIVWNKKSKKVSN [G19S],1.7
2,FICQATGDPRPKIVWNKKWKKVSN [G19W],1.84
3,FICQATGDPRPKIVWNKKKKKVSN [G19K],1.87
4,FICQATGDPRPKIVWNKKVKKVSN [G19V],1.71
5,FICQATGDPRPKIVWNKKFKKVSN [G19F],2.51
6,FICQATGDPRPKIVWNKKDKKVSN [G19D],1.71
7,FICQATGDPRPKIVWNKKPKKVSN [G19P],1.74
8,FICQATGDPRPKIVWNKKMKKVSN [G19M],2.22
9,FICQATGDPRPKIVWNKKEKKVSN [G19E],1.8
10,FICQATGDPRPKIVWNKKIKKVSN [G19I],1.53
11,FICQATGDPRPKIVWNKKTKKVSN [G19T],2.14
12,FICQATGDPRPKIVWNKKRKKVSN [G19R],2.05
13,FICQATGDPRPKIVWNKKHKKVSN [G19H],1.9
14,FICQATGDPRPKIVWNKKCKKVSN [G19C],1.26
15,FICQATGDPRPKIVWNKKGKKVDN [S23D],2.52
16,FICQATGDPRPKIVWNKKGKKVFN [S23F],2.31
17,FICQATGDPRPKIVWNKKGKKVCN [S23C],2.69
18,FICQATGDPRPKIVWNKKGKKVRN [S23R],2.08
19,FICQATGDPRPKIVWNKKGKKVHN [S23H],2.37
20,FICQATGDPRPKIVWNKKGKKVQN [S23Q],2.07
21,FICQATGDPRPKIVWNKKGKKVNN [S23N],2.12
22,FICQATGDPRPKIVWNKKGKKVAN [S23A],2.49
23,FICQATGDPRPKIVWNKKGKKVGN [S23G],2.28
24,FICQATGDPRPKIVWNKKGKKVMN [S23M],2.29

row,Variant,protein stability index
1,FICQATGDPRPKIVWNKKGKKVPN [S23P],2.15
2,FICQATGDPRPKIVWNKKGKKVWN [S23W],2.28
3,FICQATGDPRPKIVWNKKGKKVKN [S23K],2.52
4,FICQATGDPRPKIVWNKKGKKVEN [S23E],2.72
5,FICQATGDPRPKIVWNKKGKKVTN [S23T],2.59
6,FICQATGDPRPKIVWNKKGKKVVN [S23V],2.4
7,FICQATGDPRPKIVWNKKGKKVIN [S23I],1.84
8,FICQATGDPRPKIVWNKKGKKVYN [S23Y],2
9,FICQATGDPRPKIVWNKKGKKVLN [S23L],2.14
10,FICQATGDPRPKIVWNKKGKKVSD [N24D],2.05
11,FICQATGDPRPKIVWNKKGKKVSM [N24M],1.4
12,FICQATGDPRPKIVWNKKGKKVST [N24T],1.65
13,FICQATGDPRPKIVWNKKGKKVSQ [N24Q],2.02
14,FICQATGDPRPKIVWNKKGKKVSW [N24W],1.92
15,FICQATGDPRPKIVWNKKGKKVSI [N24I],2.73
16,FICQATGDPRPKIVWNKKGKKVSA [N24A],1.97
17,FICQATGDPRPKIVWNKKGKKVSE [N24E],2.37
18,FICQATGDPRPKIVWNKKGKKVSR [N24R],3.04
19,FICQATGDPRPKIVWNKKGKKVSL [N24L],1.44
20,FICQATGDPRPKIVWNKKGKKVSP [N24P],2.31
21,FICQATGDPRPKIVWNKKGKKVSC [N24C],2.23
22,FICQATGDPRPKIVWNKKGKKVSS [N24S],2.03
23,FICQATGDPRPKIVWNKKGKKVSH [N24H],2.17
24,FICQATGDPRPKIVWNKKGKKVSG [N24G],2.22

row,Variant,protein stability index
1,FICQATGDPRPKIVWNKKGKKVSV [N24V],2.33
2,FICQATGDPRPKIVWNKKGKKVSF [N24F],1.89
3,FICQATGDPRPKIVWNKKGKKVSK [N24K],1.85
4,FICQATGDPRPKIVWNKRGKKVSN [K18R],2.2
5,FICQATGDPRPKIVWNKCGKKVSN [K18C],1.72
6,FICQATGDPRPKIVWNKNGKKVSN [K18N],1.98
7,FICQATGDPRPKIVWNKVGKKVSN [K18V],1.45
8,FICQATGDPRPKIVWNKWGKKVSN [K18W],2.01
9,FICQATGDPRPKIVWNKDGKKVSN [K18D],1.95
10,FICQATGDPRPKIVWNKSGKKVSN [K18S],1.61
11,FICQATGDPRPKIVWNKAGKKVSN [K18A],1.93
12,FICQATGDPRPKIVWNKEGKKVSN [K18E],2.41
13,FICQATGDPRPKIVWNKPGKKVSN [K18P],1.97
14,FICQATGDPRPKIVWNKGGKKVSN [K18G],2.04
15,FICQATGDPRPKIVWNKTGKKVSN [K18T],1.51
16,FICQATGDPRPKIVWNKIGKKVSN [K18I],1.24
17,FICQATGDPRPKIVWNKQGKKVSN [K18Q],1.74
18,FICQATGDPRPKIVWNKLGKKVSN [K18L],1.67
19,FICQATGDPRPKIVWNKMGKKVSN [K18M],1.46
20,FICQATGDPRPKIVWNKYGKKVSN [K18Y],1.94
21,FICQATGDPRPKIVWNKHGKKVSN [K18H],2.35
22,FICQATGDPRPKIVWNKFGKKVSN [K18F],1.38
